Data reported in patent US20170247465A1, “COMBINATION THERAPY FOR TREATMENT OF CANCER” (OncoMed Pharmaceuticals, Inc., priority 2014, published 2017).

Test system: cancer stem cells in OMP-LU77 lung tumors
Experiment: Limiting dilution assay, cancer stem cell frequency in OMP-LU77 lung tumors (Example 7)
Format: in vivo, NOD/SCID mice
Details: tumors from mice treated with vantictumab administered prior to paclitaxel; 50, 150, 500 cells implanted, 79 days; FIG. 5B
Text: FIGS. 5A-5B. Cancer Stem Cell frequency. FIG. 5A. Tumor growth in mice following implantation of 50, 150, or 500 OMP-LU77 tumor cells obtained from mice that had been treated with either control antibody (Control mAb), paclitaxel (Pac), or the combination of OMP-18R5 and paclitaxel (Van+Pac). FIG. 5B. Cancer stem cell (CSC) frequency in OMP-LU77 lung tumors following treatment with control antibody (Control mAb), paclitaxel, or a combination of OMP-18R5 antibody and paclitaxel (Van+Pac) as determined by limiting dilution analysis.
Limiting dilution assays (LDAs) can be used to assess the effect of Wnt pathway inhibitors on solid tumor cancer stem cells and/or on the tumorigenicity of a tumor. The assays can be used to determine the frequency of cancer stem cells in tumors from animals treated with the Wnt pathway inhibitor and to compare that frequency to the frequency of cancer stem cells in tumors from control animals. […]
For the LDA, the tumor cells in the suspension were harvested, counted, and appropriate cell doses (50, 150, and 500 cells) were injected subcutaneously in NOD/SCID mice (10 mice per cell dose per treatment group). […] The percentage of mice with detectable tumors was determined in all treatment groups and compared to the percentage of mice with detectable tumors in the controls. […]

B1: OMP-18R5: anti-FZD antibody, IgG2, also known as vantictumab; heavy chain SEQ ID NO:3, light chain SEQ ID NO:4 (antibody)
heavy: EVQLVESGGGLVQPGGSLRLSCAASGFTFSHYTLSWVRQAPGKGLEWVSVISGDGSYTYYADSVKGRFTISSDNSKNTLYLQMNSLRAEDTAVYYCARNFIKYVFANWGQGTLVTVSSASTKGPSVFPLAPCSRSTSESTAALGCLVKDYFPEPVTVSWNSGALTSGVHTFPAVLQSSGLYSLSSVVTVPSSNFGTQTYTCNVDHKPSNTKVDKTVERKCCVECPPCPAPPVAGPSVFLFPPKPKDTLMISRTPEVTCVVVDVSHEDPEVQFNWYVDGVEVHNAKTKPREEQFNSTFRVVSVLTVVHQDWLNGKEYKCKVSNKGLPAPIEKTISKTKGQPREPQVYTLPPSREEMTKNQVSLTCLVKGFYPSDIAVEWESNGQPENNYKTTPPMLDSDGSFFLYSKLTVDKSRWQQGNVFSCSVMHEALHNHYTQKSLSLSPGK
light: DIELTQPPSVSVAPGQTARISCSGDNIGSFYVHWYQQKPGQAPVLVIYDKSNRPSGIPERFSGSNSGNTATLTISGTQAEDEADYYCQSYANTLSLVFGGGTKLTVLGQPKAAPSVTLFPPSSEELQANKATLVCLISDFYPGAVTVAWKADSSPVKAGVETTTPSKQSNNKYAASSYLSLTPEQWKSHRSYSCQVTHEGSTVEKTVAPTECS
With B1 the “cancer stem cell frequency (limiting dilution analysis, L-Calc)” value was “significantly decreased the cancer stem frequency”.
